In article PMC11602996, “Discovery, characterization, and structure of a cofactor-independent histidine racemase from the oral pathogen Fusobacterium nucleatum” (The Journal of Biological Chemistry, 2024):

B1: HisR from F. nucleatum ATCC 23726 (Fusobacterium nucleatum subsp. nucleatum ATCC 23726) (protein)
chain: MDGKVQVLDFIKINPAGNITILIDNFDIYDKNIPKLSEEIMKETNLYAEQVGFIKEKHLQMMGGEFCGNASRSFASLLAFRDKDFSEQKNYSITCSGESEVLDVDVRTDGAKNKFLAKIKMPKFISLEEISIDEYKLGLVRFSGISHFIFNIKENKETSFENIIDLVKKYLSNEDYSAFGIMFFDKDNLSMKPYVYVKELESGIYENSCASGTTALGYYLKKYKNLDRAKVVQPNGWLEYIIENDEMYIDGPVEIVAEGKVYI
B2: HisR (FN1732, predicted DapF) from F. nucleatum ATCC 25586 (Fusobacterium nucleatum subsp. nucleatum ATCC 25586) (protein)
chain: MDRKVQVLDFIKINPAGNITILIDNFDIYDKNIPKLSEEIMKETNLYAEQVGFIKDSHLQMMGGEFCGNASRAFASLLAFRDKDFSKQKNYNITCSGESKVLDVDVRNDGAKNKFLAKIKMPKFLSLEEINVDEYKLGLVRFSGINHFIFNIKENKETSFENIIDLVKKYLSNEEYSAFGIMFFDSDNLSMKPYVYVKEVGSGVYENSCASGTTALGYYLKKCKNLDRAKIVQPNGWLEYIIENDEMYIDGPVEIIAEGKIYIGK
notes: C-terminal hexahistidine tag, codon-optimized gene in pET-24b(+), expressed in E. coli BL21(DE3), Ni-NTA purified; homodimer

How the values were obtained:
purified protein [1] = substrate: N[C@@H](Cc1c[nH]cn1)C(=O)O; assay: purified protein; format: biochemical, Fusobacterium nucleatum; conditions: 20 mM NaH2PO4, 100 mM NaCl, pH 7.5, 25 °C
purified protein [2] = substrate: N[C@H](Cc1c[nH]cn1)C(=O)O; assay: purified protein; format: biochemical, Fusobacterium nucleatum; conditions: 20 mM NaH2PO4, 100 mM NaCl, pH 7.5, 25 °C

| Protein | Km (purified protein [1]) [mM] | kcat (purified protein [1]) [s⁻¹] | kcat/Km (purified protein [1]) [M⁻¹ s⁻¹] | Km (purified protein [2]) [mM] | kcat (purified protein [2]) [s⁻¹] | kcat/Km (purified protein [2]) [M⁻¹ s⁻¹] |
| --- | --- | --- | --- | --- | --- | --- |
| B1 | 5 | 42 | 9000 | 18 | 64 | 4000 |
| B2 | 4 | 74 | 20000 | 24 | 250 | 10000 |
